Positions count from the first letter of the chain named.
Experiments:
hiR2-FL-P575A-T7 = target: T1, hiR2-FL-P575A-T7 (human, UniProt Q6PJF5 1-856); assay: FACS on MEF-DKO cells expressing the variant, 3 µg/ml antibody
T1 sequence: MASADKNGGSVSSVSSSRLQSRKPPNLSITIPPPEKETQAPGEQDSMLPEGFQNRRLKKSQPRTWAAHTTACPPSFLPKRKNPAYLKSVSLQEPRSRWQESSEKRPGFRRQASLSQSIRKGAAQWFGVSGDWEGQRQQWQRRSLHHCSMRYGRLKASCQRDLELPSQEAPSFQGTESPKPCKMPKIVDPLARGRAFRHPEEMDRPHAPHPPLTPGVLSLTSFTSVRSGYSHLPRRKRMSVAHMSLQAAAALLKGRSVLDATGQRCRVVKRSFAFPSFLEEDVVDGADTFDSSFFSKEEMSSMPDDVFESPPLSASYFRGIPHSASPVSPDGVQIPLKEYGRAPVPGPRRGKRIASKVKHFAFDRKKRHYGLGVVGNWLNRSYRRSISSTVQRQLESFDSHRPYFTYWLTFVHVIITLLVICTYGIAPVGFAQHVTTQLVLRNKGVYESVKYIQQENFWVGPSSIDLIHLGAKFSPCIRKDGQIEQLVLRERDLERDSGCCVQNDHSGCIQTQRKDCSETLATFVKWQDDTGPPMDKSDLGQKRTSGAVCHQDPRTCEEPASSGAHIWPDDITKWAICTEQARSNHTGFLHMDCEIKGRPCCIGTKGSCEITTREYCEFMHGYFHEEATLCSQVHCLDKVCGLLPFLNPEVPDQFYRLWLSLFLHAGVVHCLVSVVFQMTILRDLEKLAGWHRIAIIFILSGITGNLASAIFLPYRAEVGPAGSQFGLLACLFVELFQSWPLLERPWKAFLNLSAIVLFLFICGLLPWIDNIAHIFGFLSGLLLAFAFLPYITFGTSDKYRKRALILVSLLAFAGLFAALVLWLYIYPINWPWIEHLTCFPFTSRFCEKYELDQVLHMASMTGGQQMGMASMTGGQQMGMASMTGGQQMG
How it was run: (§1)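 Read-out is PE fluorescence by flow cytometry after two-step staining: antibody at 3 μg/ml for 1 hour on ice, then PE-labelled goat anti-mouse IgG F(ab′)2 (1:100) for 1 hour on ice.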

hiR2-FL-N584A-T7 = target: T2, hiR2-FL-N584A-T7 (human, UniProt Q6PJF5 1-856); assay: as above
T2 sequence: T1 sequence with A575P, N584A
How it was run: as §1

B1: antibody 3 (antibody, V domains shown)
VH: QVTLKESGPGILQPSQTLSLTCSFSGFSLTTFAMGIGWVRQPSGKGLEWLAHIWWDGEKYNNPVLKSRLTISKDTSKNQVFLRIANVDTPDTATYYCARISSIYYIIDNWGQGTSVTVSS
VL: DIVLTQSPATLSVTPGHSVSLSCRASQSISNNLHWYQKKSHESPRLLIKYVSQSISGIPSRFSGSGSGTDFTLSINSVETEDFGMYFCQQSYNWPLTFGAGTKLELK
notes: mouse IgG, kappa light chain; also called clone #3; purified antibody 3
Q: Which results are given for B1?
A: loss of binding vs wild type (hiR2-FL-P575A-T7): ≥ 30%; loss of binding vs wild type (hiR2-FL-N584A-T7): ≥ 30%
